Assays:
[1] = biological target: T1, PGA(5) peptide, M. mazei MtrA-derived
T1 chain: PGAFDADP

[2] = biological target: T2, (5)KDPGA(10F) peptide, M. mazei MtrA-derived
T2 chain: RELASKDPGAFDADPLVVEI

[3] = biological target: T3, M. mazei Ub-(5)KDPGA(15) with N-terminal His-tag
T3 chain: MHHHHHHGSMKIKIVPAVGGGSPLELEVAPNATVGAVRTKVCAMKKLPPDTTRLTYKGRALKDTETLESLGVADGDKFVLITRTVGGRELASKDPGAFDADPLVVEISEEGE

[4] = biological target: T4, PGA(10) peptide, M. mazei MtrA-derived
T4 chain: PGAFDADPLVVEI

[5] = biological target: T5, PGA(10F) peptide, M. jannaschii MtrA-derived
T5 chain: PGAIDEDPFIIEL

[6] = biological target: T6, (0)KDPGA(10) peptide, M. mazei MtrA-derived
T6 chain: KDPGAFDADPLVVEI

[7] = biological target: T7, (15)KDPGA(10) peptide, M. jannaschii MtrA-derived, without fluorophore
T7 chain: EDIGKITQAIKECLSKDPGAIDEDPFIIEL

[8] = biological target: T8, M. mazei PGA(15)-Ub with C-terminal His-tag
T8 chain: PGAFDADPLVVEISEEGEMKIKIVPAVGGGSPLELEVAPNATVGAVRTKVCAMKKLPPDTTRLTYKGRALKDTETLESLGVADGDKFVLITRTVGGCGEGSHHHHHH

[9] = biological target: T9, PGA(10) peptide, M. jannaschii MtrA-derived
T9 chain: PGAIDEDPFIIEL

[10] = biological target: T10, (15)KDPGA(10F) peptide, M. jannaschii MtrA-derived
T10 chain: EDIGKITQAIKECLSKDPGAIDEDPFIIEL

B1: M. mazei Adriase with C-terminal His-tag (protein)
chain: TLVIAFIGKNGAVMAGDMREITFEGEKPDREKLEKELYSGSIVTDEEMQKKAEEFGVKITVADCKEKVSERNGVLVGEVSSAEGGVVKKRRLYASAGNFAIAELINTEMTLTSQGKGSNFIAFGNEFTKQVANKCFKDNWTKKSNLQDAVKILILCMETVARKTASVSKQFMIVQTASNADVLKVVEKDRNCGSHHHHHH
In the case of B1, the “ligase activity with PGA(5) as secondary and Ub-(5)KDPGA(15) as primary substrate, SDS-PAGE time course” value [1] is reported as “No Adriase activity was observed with (0)KDPGA(10) or PGA(5) substrates (n.d.; SEQ ID NO: 531 and 529)”, the “maximum ligation rate, ligation of (5)KDPGA(10F) with PGA(10), Michaelis-Menten fit” value [2] is reported as “a maximum rate of ~2.25 ligations per enzyme and second” and the “substrate concentration at half maximal reaction speed, ligation of (5)KDPGA(10F) with PGA(10)” value [2] is reported as “The half maximal reaction speed is observed at a substrate concentration of ~9 µM each”. For the same protein, the “ligation rate coefficient at 25 µM substrate, ligation of Ub-(5)KDPGA(15) with PGA(15)-Ub” value [3] was 0.74±0.05 sec^-1 at 25 µM, the “ligation rate coefficient at 50 µM substrate, ligation of Ub-(5)KDPGA(15) with PGA(15)-Ub” value [3] was 0.88±0.07 sec^-1 at 50 µM and the “ligation rate coefficient at 100 µM substrate, ligation of Ub-(5)KDPGA(15) with PGA(15)-Ub” value [3] was 0.90±0.14 sec^-1 at 100 µM substrate concentration. The “maximum rate of the protein-protein ligation of Ub-(5)KDPGA(15) with PGA(15)-Ub” value [3] was “a maximum rate of 0.92 ligations per enzyme and second”, the “substrate concentration at the half-maximum rate, ligation of Ub-(5)KDPGA(15) with PGA(15)-Ub” value [3] was “the half-maximum rate is observed at a substrate concentration of 2.2 µM each” and the “maximum ligation rate, ligation of (5)KDPGA(10F) with PGA(10), Michaelis-Menten fit” value [4] was “a maximum rate of ~2.25 ligations per enzyme and second”. For the same protein, the “substrate concentration at half maximal reaction speed, ligation of (5)KDPGA(10F) with PGA(10)” value [4] was “The half maximal reaction speed is observed at a substrate concentration of ~9 µM each”, the “ligase activity with M. jannaschii (15)KDPGA(10) and PGA(10F) peptides, fluorescent product on SDS-PAGE” value [5] was “also M. mazei Adriase showed activity when incubated with the M. jannaschii derived peptides” and the “ligase activity with (0)KDPGA(10) as primary and PGA(15)-Ub as secondary substrate, SDS-PAGE time course” value [6] was “No Adriase activity was observed with (0)KDPGA(10) or PGA(5) substrates (n.d.; SEQ ID NO: 531 and 529)”. The “ligase activity with M. jannaschii (15)KDPGA(10) and PGA(10F) peptides, fluorescent product on SDS-PAGE” value [7] was “also M. mazei Adriase showed activity when incubated with the M. jannaschii derived peptides”, the “ligation rate coefficient at 25 µM substrate, ligation of Ub-(5)KDPGA(15) with PGA(15)-Ub” value [8] was 0.74±0.05 sec^-1 at 25 µM and the “ligation rate coefficient at 50 µM substrate, ligation of Ub-(5)KDPGA(15) with PGA(15)-Ub” value [8] was 0.88±0.07 sec^-1 at 50 µM. The “ligation rate coefficient at 100 µM substrate, ligation of Ub-(5)KDPGA(15) with PGA(15)-Ub” value [8] was 0.90±0.14 sec^-1 at 100 µM substrate concentration, the “maximum rate of the protein-protein ligation of Ub-(5)KDPGA(15) with PGA(15)-Ub” value [8] was “a maximum rate of 0.92 ligations per enzyme and second” and the “substrate concentration at the half-maximum rate, ligation of Ub-(5)KDPGA(15) with PGA(15)-Ub” value [8] was “the half-maximum rate is observed at a substrate concentration of 2.2 µM each”.

B2: M. jannaschii Adriase with C-terminal His-tag (protein)
chain: SLIICYYGKNGAVIGGDRRQIFFRGSEENRKILEEKLYSGEIKSEEELYKLAEKLNIKIIIEDDREKVRKISDSVVCGEVRSLGIDAKRRRVYATKGKCAIVDILNDTVTNQTIKEGFGIVVLGNRFLKKKAEEELKRTAKLFPMMPIQQIEDAIKEIFEKLKWHPTVSKEYDIYSVNKYEKNFEEVIKKDIESLFKYREQLRKQLIDFGKVMSIVNKIVKNGEIGVIKDGKLHLYDDYIAIDKIDPNPKVFKVVDVEGNFKDGDIVVIENGDMKIKGTNEKVTTKYIIIHKGSHHHHHH
In the case of B2, the “maximum ligation rate, recombination of (15)KDPGA(10F) with PGA(10), Michaelis-Menten fit” value [9] is reported as “maximum rate of ~1.4 ligations per enzyme and second”, the “substrate concentration at half maximal reaction speed, recombination of (15)KDPGA(10F) with PGA(10)” value [9] is reported as “The half maximal reaction speed is observed at a substrate concentration of 23 µM each” and the “maximum ligation rate, recombination of (15)KDPGA(10F) with PGA(10), Michaelis-Menten fit” value [10] is reported as “maximum rate of ~1.4 ligations per enzyme and second”. For the same protein, the “substrate concentration at half maximal reaction speed, recombination of (15)KDPGA(10F) with PGA(10)” value [10] was “The half maximal reaction speed is observed at a substrate concentration of 23 µM each”.

Source: US20260275319
